Laboratory results taken from paper PMC9096947.
Where “and” joins values, the source holds several entries; their conditions need not be identical. Equal values may be shown once.

Tested on: CodY (Streptococcus agalactiae (Group B Streptococcus) BM110)
Assay: EMSA
Conditions: EMSA as in Barbieri et al. 2015 (buffer, salt, pH, temperature not given); 50 nM FAM probe; 5% non-denaturing Tris-glycine polyacrylamide gel; 10 mM each ILV …

Substance: livKp220 (livK regulatory region, WT)
- Kd: 50 nM and 150 nM
